The supplement of paper PMC10567573

B1: ATL3 (parent)
chain: HFKKTKKMGGKDFSFRYQQELEEE
B2: TSPAN10 (parent)
chain: EGCGPPLRRWLRANLAASGGYAIA

Variants of: B1
Test: protein stability index of a GFP-peptide fusion (GPS, HEK-293T) (PSI 1-6); higher = more stable
Conditions: c terminus: a fixed tail appended
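Further: lentivirally expressed fusions sorted by FACS into six bins by GFP to DsRed ratio, PSI derived from sequencing read proportions per bin multiplied by bin number.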

Variant | protein stability index
HFKKNKKMGGKDFSFRYQQELEEE | 2.58
HFKKAKKMGGKDFSFRYQQELEEE | 1.5
HFKKKKKMGGKDFSFRYQQELEEE | 2.22
HFKKQKKMGGKDFSFRYQQELEEE | 1.8
HFKKLKKMGGKDFSFRYQQELEEE | 2.53
HFKKWKKMGGKDFSFRYQQELEEE | 3.29
HFKKRKKMGGKDFSFRYQQELEEE | 1.31
HFKKGKKMGGKDFSFRYQQELEEE | 1.35
HFKKHKKMGGKDFSFRYQQELEEE | 1.83
HFKITKKMGGKDFSFRYQQELEEE | 1.66
HFKNTKKMGGKDFSFRYQQELEEE | 2.26
HFKLTKKMGGKDFSFRYQQELEEE | 2.6
HFKCTKKMGGKDFSFRYQQELEEE | 2.55
HFKSTKKMGGKDFSFRYQQELEEE | 3.01
HFKTTKKMGGKDFSFRYQQELEEE | 2.1
HFKDTKKMGGKDFSFRYQQELEEE | 3.67
HFKVTKKMGGKDFSFRYQQELEEE | 1.62
HFKYTKKMGGKDFSFRYQQELEEE | 1.23
HFKMTKKMGGKDFSFRYQQELEEE | 2.26
HFKHTKKMGGKDFSFRYQQELEEE | 2.1
HFKWTKKMGGKDFSFRYQQELEEE | 1.61
HFKATKKMGGKDFSFRYQQELEEE | 2.72
HFKGTKKMGGKDFSFRYQQELEEE | 2.67
HFKPTKKMGGKDFSFRYQQELEEE | 1.82
HFKETKKMGGKDFSFRYQQELEEE | 1.6
HFKQTKKMGGKDFSFRYQQELEEE | 1.75

Variants of: B2
Test: as above
Conditions: c terminus: a fixed tail appended

Variant | protein stability index
EGCGPPLRRWLRANLAASGGYKIA | 1.75
EGCGPPLRRWLRANLAASGGYCIA | 1.38
EGCGPPLRRWLRANLAASGGYPIA | 1.93
EGCGPPLRRWLRANLAASGGYDIA | 2.46
EGCGPPLRRWLRANLAASGGYMIA | 1.62
EGCGPPLRRWLRANLAASGGYRIA | 1.68
EGCGPPLRRWLRANLAASGGYSIA | 1.93
EGCGPPLRRWLRANLAASGGYWIA | 2.18
EGCGPPLRRWLRANLAASGGYNIA | 2.43
EGCGPPLRRWLRANLAASGGYVIA | 2.8
EGCGPPLRRWLRANLAASGGYIIA | 1.03
EGCGPPLRRWLRANLAASGGYEIA | 2.28
EGCGPPLRRWLRANLAASGGYQIA | 1.63
EGCGPPLRRWLRANLAASGGYTIA | 1.7
EGCGPPLRRWLRANLAASGGYLIA | 2.06
EGCGPPLRRWLRANLAASGGYYIA | 2.04
EGCGPPLRRWLRANLAASGGYGIA | 1.96
EGCGPPLRRWLRANLAASGGYHIA | 2.23
EGCGPPLRRWLRANLAASGGQAIA | 2.75
EGCGPPLRRWLRANLAASGGMAIA | 2.17
EGCGPPLRRWLRANLAASGGHAIA | 2.39
EGCGPPLRRWLRANLAASGGVAIA | 2.53
EGCGPPLRRWLRANLAASGGSAIA | 2.7

Variant | protein stability index
EGCGPPLRRWLRANLAASGGWAIA | 1.47
EGCGPPLRRWLRANLAASGGLAIA | 2.11
EGCGPPLRRWLRANLAASGGPAIA | 2.07
EGCGPPLRRWLRANLAASGGRAIA | 2.3
EGCGPPLRRWLRANLAASGGIAIA | 1.81
EGCGPPLRRWLRANLAASGGGAIA | 2.11
EGCGPPLRRWLRANLAASGGTAIA | 2.53
EGCGPPLRRWLRANLAASGGNAIA | 2.61
EGCGPPLRRWLRANLAASGGKAIA | 3.04
EGCGPPLRRWLRANLAASGGYAIT | 2
EGCGPPLRRWLRANLAASGGYAIS | 1.98
EGCGPPLRRWLRANLAASGGYAIH | 1.68
EGCGPPLRRWLRANLAASGGYAIC | 2.02
EGCGPPLRRWLRANLAASGGYAIG | 1.65
EGCGPPLRRWLRANLAASGGYAII | 2.22
EGCGPPLRRWLRANLAASGGYAIN | 2.27
EGCGPPLRRWLRANLAASGGYAIV | 1.67
EGCGPPLRRWLRANLAASGGYAIR | 2.12
EGCGPPLRRWLRANLAASGGYAIW | 2.25
EGCGPPLRRWLRANLAASGGYAID | 2.42
EGCGPPLRRWLRANLAASGGYAIQ | 2.6
EGCGPPLRRWLRANLAASGGYAIK | 2.15
EGCGPPLRRWLRANLAASGGYAIE | 2.92

Variant | protein stability index
EGCGPPLRRWLRANLAASGGYAIF | 1.48
EGCGPPLRRWLRANLAASGGYAIM | 1.93
EGCGPPLRRWLRANLAASGGYAIL | 2.81
EGCGPPLRRWLRANLAASGGYAIY | 1.16
EGCGPPLRRWLRANLAASGGYAEA | 2.34
EGCGPPLRRWLRANLAASGGYAPA | 2.45
EGCGPPLRRWLRANLAASGGYANA | 2.92
EGCGPPLRRWLRANLAASGGYAGA | 2.3
EGCGPPLRRWLRANLAASGGYATA | 2.53
EGCGPPLRRWLRANLAASGGYAQA | 2.48
EGCGPPLRRWLRANLAASGGYASA | 2.63
EGCGPPLRRWLRANLAASGGYAVA | 2.11
EGCGPPLRRWLRANLAASGGYARA | 2.6
EGCGPPLRRWLRANLAASGGYAFA | 2.17
EGCGPPLRRWLRANLAASGGYAHA | 1.96
EGCGPPLRRWLRANLAASGGYAMA | 1.21
EGCGPPLRRWLRANLAASGGYACA | 2.15
EGCGPPLRRWLRANLAASGGYADA | 2.35
EGCGPPLRRWLRANLAASGGYAKA | 2.96
EGCGPPLRRWLRANLAASGGYALA | 2.16
EGCGPPLRRWLRANLAASGGYAWA | 1.59
EGCGPPLRRWLRANLAASGGYAYA | 1.73
